{"source": "patent US20260007686A1", "about": "“COMPOSITIONS AND METHODS FOR IMPROVING VISION” (Ripple Therapeutics Corporation, priority 2022, published 2026)", "origin": "cited, not measured here", "key": {"[1]": {"system": "macular edema in individuals with diabetic macular edema (DME)", "conditions": "literature studies (Boyer et al.; Callanan et al.)"}, "[2]": {"system": "visual acuity of individuals with diabetic macular edema (DME)", "conditions": "literature studies (Boyer et al.; Callanan et al.)"}}, "data": [{"molecule": "ranibizumab (antibody, chains of the INN, looked up, V domains shown, Fab, ranibizumab injection, a clinically approved anti-VEGF intravitreal injection) VH: EVQLVESGGGLVQPGGSLRLSCAASGYDFTHYGMNWVRQAPGKGLEWVGWINTYTGEPTYAADFKRRFTFSLDTSKSTAYLQMNSLRAEDTAVYYCAKYPYYYGTSHWYFDVWGQGTLVTVSS VL: DIQLTQSPSSLSASVGDRVTITCSASQDISNYLNWYQQKPGKAPKVLIYFTSSLHSGVPSRFSGSGSGTDFTLTISSLQPEDFATYYCQQYSTVPWTFGQGTKVEIK", "values": [{"measurement": "Mean Change in CST at M3", "setting": "[1]; month 3", "result": "−140", "unit": "μm"}, {"measurement": "Mean Change in CST at M6", "setting": "[1]; month 6", "result": "−133", "unit": "μm"}, {"measurement": "Mean Change in BCVA at M3", "setting": "[2]; month 3", "result": "+6 letters"}, {"measurement": "Mean Change in BCVA at M6", "setting": "[2]; month 6", "result": "+8 letters"}]}]}
